Measurements as given in paper PMC9482650, “Quantitative fragmentomics allow affinity mapping of interactomes” (Nature Communications, 2022).

T1: PDZD11, Q5EBL8
T1 sequence (Q5EBL8 42-139, limits assumed, looked up): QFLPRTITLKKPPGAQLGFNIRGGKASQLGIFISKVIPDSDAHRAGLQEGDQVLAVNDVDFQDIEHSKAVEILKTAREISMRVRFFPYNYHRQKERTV

T2: SHROOM4, Q9ULL8
T2 sequence (Q9ULL8 5-102, limits assumed, looked up): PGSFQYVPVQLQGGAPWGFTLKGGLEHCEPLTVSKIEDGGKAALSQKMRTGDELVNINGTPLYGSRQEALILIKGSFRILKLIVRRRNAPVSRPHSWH

T3: PTPN13_4, Q12923
T3 sequence (Q12923 1783-1878, limits assumed, looked up): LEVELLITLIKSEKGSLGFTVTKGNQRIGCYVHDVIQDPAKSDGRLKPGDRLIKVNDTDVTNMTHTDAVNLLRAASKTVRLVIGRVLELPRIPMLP

T4: USH1C_1, Q9Y6N9
T4 sequence (Q9Y6N9 82-179, limits assumed, looked up): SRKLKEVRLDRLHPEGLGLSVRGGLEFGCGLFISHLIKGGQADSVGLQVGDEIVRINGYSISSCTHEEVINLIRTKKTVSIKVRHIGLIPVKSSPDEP

T5: GRIP1_1, Q9Y3R0
T5 sequence (Q9Y3R0 48-146, limits assumed, looked up): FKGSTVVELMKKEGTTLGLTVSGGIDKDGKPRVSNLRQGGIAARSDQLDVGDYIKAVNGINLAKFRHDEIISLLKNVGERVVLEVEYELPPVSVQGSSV

T6: PDZD2_6, O15018
T6 sequence (O15018 2745-2839, limits assumed, looked up): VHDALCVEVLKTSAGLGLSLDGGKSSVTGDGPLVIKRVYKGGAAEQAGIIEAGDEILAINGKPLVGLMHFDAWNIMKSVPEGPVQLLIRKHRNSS

T7: SHANK3, Q9BYB0
T7 sequence (Q9BYB0 641-750, limits assumed, looked up): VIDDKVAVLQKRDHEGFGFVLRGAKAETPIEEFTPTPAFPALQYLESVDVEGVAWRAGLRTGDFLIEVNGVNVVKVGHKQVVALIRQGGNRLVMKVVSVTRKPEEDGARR

T8: SNTB2, Q13425
T8 sequence (Q13425 110-208, limits assumed, looked up): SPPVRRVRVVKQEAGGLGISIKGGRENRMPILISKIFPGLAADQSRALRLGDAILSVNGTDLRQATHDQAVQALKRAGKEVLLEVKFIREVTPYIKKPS

T9: PDZD2_3, O15018
T9 sequence (O15018 581-682, limits assumed, looked up): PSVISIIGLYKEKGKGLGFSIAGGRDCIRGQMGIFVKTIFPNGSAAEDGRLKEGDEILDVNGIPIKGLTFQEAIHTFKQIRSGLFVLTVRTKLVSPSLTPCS

T10: NHERF3_2, Q5T2W1
T10 sequence (Q5T2W1 129-225, limits assumed, looked up): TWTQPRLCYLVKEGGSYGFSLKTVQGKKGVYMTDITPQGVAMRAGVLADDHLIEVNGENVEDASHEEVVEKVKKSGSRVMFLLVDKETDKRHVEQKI

T11: PARD6B, Q9BYG5
T11 sequence (Q9BYG5 152-260, limits assumed, looked up): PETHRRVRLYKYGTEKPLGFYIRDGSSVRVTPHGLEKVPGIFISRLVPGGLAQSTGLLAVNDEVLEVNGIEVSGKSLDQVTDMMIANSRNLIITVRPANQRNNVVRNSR

T12: PDZD7_1, Q9H5P4
T12 sequence (Q9H5P4 81-178, limits assumed, looked up): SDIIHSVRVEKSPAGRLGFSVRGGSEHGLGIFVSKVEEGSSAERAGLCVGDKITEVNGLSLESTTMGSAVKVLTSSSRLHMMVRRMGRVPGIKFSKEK

T13: USH1C_2, Q9Y6N9
T13 sequence (Q9Y6N9 206-303, limits assumed, looked up): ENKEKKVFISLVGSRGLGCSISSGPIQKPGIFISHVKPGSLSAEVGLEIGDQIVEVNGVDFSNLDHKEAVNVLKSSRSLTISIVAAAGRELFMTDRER

T14: MPDZ_7, O75970
T14 sequence (O75970 1146-1253, limits assumed, looked up): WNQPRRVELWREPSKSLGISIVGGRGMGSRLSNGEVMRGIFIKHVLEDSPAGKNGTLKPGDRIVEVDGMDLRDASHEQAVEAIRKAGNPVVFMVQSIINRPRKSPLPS

B1: PBK, Q96KB5 (peptide)
chain: HIVEALETDV
B2: SLCO1C1, Q9NYB5 (peptide)
chain: NYWPGKETQL

Target: PARD3B_3, Q8TEW8
Experiment: holdup assay
Set-up: key: below the threshold = too weak to quantify, mostly under pKd 3.1 to 4
Settings: plain residues with an end cap or a label only (N-terminal biotin on a linker: ttds)

Chain of PARD3B_3, Q8TEW8 (Q8TEW8 490-594): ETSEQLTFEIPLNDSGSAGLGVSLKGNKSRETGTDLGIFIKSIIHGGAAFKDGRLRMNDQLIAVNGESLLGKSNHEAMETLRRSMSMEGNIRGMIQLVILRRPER

| Binder | pKd |
| --- | --- |
| B1 | below the threshold |
| B2 | below the threshold |

Target: T1, PDZD11, Q5EBL8
Experiment: holdup assay
Set-up: key: below the threshold = too weak to quantify, mostly under pKd 3.1 to 4
Settings: plain residues with an end cap or a label only (N-terminal biotin on a linker: ttds)

| Binder | pKd |
| --- | --- |
| B1 | below the threshold |
| B2 | below the threshold |

Target: T2, SHROOM4, Q9ULL8
Experiment: holdup assay
Set-up: key: below the threshold = too weak to quantify, mostly under pKd 3.1 to 4
Settings: plain residues with an end cap or a label only (N-terminal biotin on a linker: ttds)

| Binder | pKd |
| --- | --- |
| B1 | below the threshold |
| B2 | below the threshold |

Target: T3, PTPN13_4, Q12923
Experiment: holdup assay
Set-up: key: below the threshold = too weak to quantify, mostly under pKd 3.1 to 4
Settings: plain residues with an end cap or a label only (N-terminal biotin on a linker: ttds)

| Binder | pKd |
| --- | --- |
| B1 | below the threshold |
| B2 | below the threshold |

Target: T4, USH1C_1, Q9Y6N9
Experiment: holdup assay
Set-up: key: below the threshold = too weak to quantify, mostly under pKd 3.1 to 4
Settings: plain residues with an end cap or a label only (N-terminal biotin on a linker: ttds)

| Binder | pKd |
| --- | --- |
| B1 | below the threshold |
| B2 | below the threshold |

Target: T5, GRIP1_1, Q9Y3R0
Experiment: holdup assay
Set-up: key: below the threshold = too weak to quantify, mostly under pKd 3.1 to 4
Settings: plain residues with an end cap or a label only (N-terminal biotin on a linker: ttds)

| Binder | pKd |
| --- | --- |
| B1 | below the threshold |
| B2 | below the threshold |

Target: T6, PDZD2_6, O15018
Experiment: holdup assay
Set-up: key: below the threshold = too weak to quantify, mostly under pKd 3.1 to 4
Settings: plain residues with an end cap or a label only (N-terminal biotin on a linker: ttds)

| Binder | pKd |
| --- | --- |
| B1 | below the threshold |
| B2 | below the threshold |

Target: RGS3, P49796-9
Experiment: holdup assay
Set-up: key: below the threshold = too weak to quantify, mostly under pKd 3.1 to 4
Settings: plain residues with an end cap or a label only (N-terminal biotin on a linker: ttds)

Chain of RGS3, P49796-9 (P49796 other isoform, or with tags, fused parts or gaps): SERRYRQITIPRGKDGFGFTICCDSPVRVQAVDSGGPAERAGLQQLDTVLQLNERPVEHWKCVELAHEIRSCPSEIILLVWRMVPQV

| Binder | pKd |
| --- | --- |
| B1 | below the threshold |
| B2 | below the threshold |

Target: MAGIX, Q9H6Y5
Experiment: holdup assay
Set-up: key: below the threshold = too weak to quantify, mostly under pKd 3.1 to 4
Settings: plain residues with an end cap or a label only (N-terminal biotin on a linker: ttds)

Chain of MAGIX, Q9H6Y5 (Q9H6Y5 118-211): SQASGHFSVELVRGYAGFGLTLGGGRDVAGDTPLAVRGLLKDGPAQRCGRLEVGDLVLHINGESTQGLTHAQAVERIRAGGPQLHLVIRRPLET

| Binder | pKd |
| --- | --- |
| B1 | below the threshold |
| B2 | 5.35 |

Target: RIMS1, Q86UR5
Experiment: holdup assay
Set-up: key: below the threshold = too weak to quantify, mostly under pKd 3.1 to 4
Settings: plain residues with an end cap or a label only (N-terminal biotin on a linker: ttds)

Chain of RIMS1, Q86UR5 (Q86UR5 584-692): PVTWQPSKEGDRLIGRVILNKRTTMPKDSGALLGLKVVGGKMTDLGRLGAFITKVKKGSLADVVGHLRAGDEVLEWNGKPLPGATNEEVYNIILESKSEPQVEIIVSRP

| Binder | pKd |
| --- | --- |
| B1 | below the threshold |
| B2 | below the threshold |

Target: MAGI1_3, Q96QZ7
Experiment: holdup assay
Set-up: key: below the threshold = too weak to quantify, mostly under pKd 3.1 to 4
Settings: plain residues with an end cap or a label only (N-terminal biotin on a linker: ttds)

Chain of MAGI1_3, Q96QZ7 (Q96QZ7 638-725): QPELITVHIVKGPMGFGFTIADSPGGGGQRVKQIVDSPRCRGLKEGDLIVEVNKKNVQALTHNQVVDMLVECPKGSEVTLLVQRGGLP

| Binder | pKd |
| --- | --- |
| B1 | 4.43 |
| B2 | below the threshold |

Target: MAGI1_6, Q96QZ7
Experiment: holdup assay
Set-up: key: below the threshold = too weak to quantify, mostly under pKd 3.1 to 4
Settings: plain residues with an end cap or a label only (N-terminal biotin on a linker: ttds)

Chain of MAGI1_6, Q96QZ7 (Q96QZ7 1146-1238): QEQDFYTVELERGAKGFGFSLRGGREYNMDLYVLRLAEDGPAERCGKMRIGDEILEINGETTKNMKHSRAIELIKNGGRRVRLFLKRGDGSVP

| Binder | pKd |
| --- | --- |
| B1 | 4.91 |
| B2 | below the threshold |

Target: T7, SHANK3, Q9BYB0
Experiment: holdup assay
Set-up: key: below the threshold = too weak to quantify, mostly under pKd 3.1 to 4
Settings: plain residues with an end cap or a label only (N-terminal biotin on a linker: ttds)

| Binder | pKd |
| --- | --- |
| B1 | below the threshold |
| B2 | below the threshold |

Target: T8, SNTB2, Q13425
Experiment: holdup assay
Set-up: key: below the threshold = too weak to quantify, mostly under pKd 3.1 to 4
Settings: plain residues with an end cap or a label only (N-terminal biotin on a linker: ttds)

| Binder | pKd |
| --- | --- |
| B1 | 4.87 |
| B2 | 5.13 |

Target: T9, PDZD2_3, O15018
Experiment: holdup assay
Set-up: key: below the threshold = too weak to quantify, mostly under pKd 3.1 to 4
Settings: plain residues with an end cap or a label only (N-terminal biotin on a linker: ttds)

| Binder | pKd |
| --- | --- |
| B1 | below the threshold |
| B2 | below the threshold |

Target: T10, NHERF3_2, Q5T2W1
Experiment: holdup assay
Set-up: key: below the threshold = too weak to quantify, mostly under pKd 3.1 to 4
Settings: plain residues with an end cap or a label only (N-terminal biotin on a linker: ttds)

| Binder | pKd |
| --- | --- |
| B1 | below the threshold |
| B2 | below the threshold |

Target: DLG2_1, Q15700
Experiment: holdup assay
Set-up: key: below the threshold = too weak to quantify, mostly under pKd 3.1 to 4
Settings: plain residues with an end cap or a label only (N-terminal biotin on a linker: ttds)

| Binder | pKd |
| --- | --- |
| B1 | 4.74 |
| B2 | below the threshold |

Target: PDZRN4_2, Q6ZMN7
Experiment: holdup assay
Set-up: key: below the threshold = too weak to quantify, mostly under pKd 3.1 to 4
Settings: plain residues with an end cap or a label only (N-terminal biotin on a linker: ttds)

Chain of PDZRN4_2, Q6ZMN7 (Q6ZMN7 389-498): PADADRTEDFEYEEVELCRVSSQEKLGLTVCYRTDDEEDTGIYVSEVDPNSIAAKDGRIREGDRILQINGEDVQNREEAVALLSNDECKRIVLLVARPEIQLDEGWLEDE

| Binder | pKd |
| --- | --- |
| B1 | below the threshold |
| B2 | below the threshold |

Target: T11, PARD6B, Q9BYG5
Experiment: holdup assay
Set-up: key: below the threshold = too weak to quantify, mostly under pKd 3.1 to 4
Settings: plain residues with an end cap or a label only (N-terminal biotin on a linker: ttds)

| Binder | pKd |
| --- | --- |
| B1 | below the threshold |
| B2 | below the threshold |

Target: PDLIM4, P50479
Experiment: holdup assay
Set-up: key: below the threshold = too weak to quantify, mostly under pKd 3.1 to 4
Settings: plain residues with an end cap or a label only (N-terminal biotin on a linker: ttds)

Chain of PDLIM4, P50479 (P50479 1-83): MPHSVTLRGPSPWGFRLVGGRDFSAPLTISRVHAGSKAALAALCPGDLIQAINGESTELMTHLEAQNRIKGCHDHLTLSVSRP

| Binder | pKd |
| --- | --- |
| B1 | below the threshold |
| B2 | below the threshold |

Target: T12, PDZD7_1, Q9H5P4
Experiment: holdup assay
Set-up: key: below the threshold = too weak to quantify, mostly under pKd 3.1 to 4
Settings: plain residues with an end cap or a label only (N-terminal biotin on a linker: ttds)

| Binder | pKd |
| --- | --- |
| B1 | below the threshold |
| B2 | below the threshold |

Target: T13, USH1C_2, Q9Y6N9
Experiment: holdup assay
Set-up: key: below the threshold = too weak to quantify, mostly under pKd 3.1 to 4
Settings: plain residues with an end cap or a label only (N-terminal biotin on a linker: ttds)

| Binder | pKd |
| --- | --- |
| B1 | below the threshold |
| B2 | below the threshold |

Target: T14, MPDZ_7, O75970
Experiment: holdup assay
Set-up: key: below the threshold = too weak to quantify, mostly under pKd 3.1 to 4
Settings: plain residues with an end cap or a label only (N-terminal biotin on a linker: ttds)

| Binder | pKd |
| --- | --- |
| B1 | below the threshold |
| B2 | 5.2 |
